Reference: US20230012273A1 (Boehringer Ingelheim, published 2023)
Numbering of substitutions follows the chain as printed. One block for each binder: values may come before it.

Legend:
[1] = molecular target: full-length human SIRPβ1 D→H on Expi-CHO cells (human, UniProt O00241 30-398); test: flow cytometry, Expi-CHO cells
Method: (§1) These cells are blocked with donkey IgG and incubated on ice with increasing concentrations of antibodies for 60 minutes, washed and stained with AF647-conjugated donkey F(ab′)₂ anti-human IgG antibodies. Stained cells are washed, fixed, and analyzed by flow cytometry. Median fluorescent intensity is determined and used as a measure of antibody binding.

[2] = molecular target: T1, human SIRPαV1 extracellular domain + His-tag (NP_542970.1) (human, UniProt P78324 31-373); test: SPR, Ab captured, ECD-His analyte
T1 construct: also called hSIRPαV1; HuSIRPαV1
Method: (§2) The binding affinity of anti-SIRPα antibodies to the various SIRPα analytes is determined by surface plasmon resonance (SPR) using a ProteOn XPR36 (Bio-Rad). The running buffer for this experiment and all dilutions (except where stated) are done in 1×HBS-EP+. […] The sensorchip is deactivated with 1M ethanolamine HCl for 420 sec at a flowrate of 10 μl/min.
(§3) The analyte is injected over the captured antibody for 300 sec at a flowrate of 30 μl/min. The dissociation is done for 600 sec. Two-fold serial dilutions of each SIRP protein (Extracellular Domain+His-Tag) are injected as analyte with the highest concentrations indicated in table 36 below.

[3] = molecular target: T2, human SIRPαV2 extracellular domain + His-tag (CAA71403.1) (human, UniProt P78324 31-373); test: SPR, Ab captured, ECD-His analyte
T2 construct: also called hSIRPαV2; HuSIRPαV2
Method: as §2, §3

[4] = molecular target: T3, human SIRPβ1 extracellular domain + His-tag (NP_006056.2) (human, UniProt O00241 30-371); test: SPR, Ab captured, ECD-His analyte
T3 construct: also called hSIRPβ1; HuSIRPβ1
Method: as §2, §3

[5] = molecular target: T4, mouse SIRPα extracellular domain + His-tag (NP_031573) (mouse, UniProt P97797 32-373); test: SPR, Ab captured, ECD-His analyte
T4 chain: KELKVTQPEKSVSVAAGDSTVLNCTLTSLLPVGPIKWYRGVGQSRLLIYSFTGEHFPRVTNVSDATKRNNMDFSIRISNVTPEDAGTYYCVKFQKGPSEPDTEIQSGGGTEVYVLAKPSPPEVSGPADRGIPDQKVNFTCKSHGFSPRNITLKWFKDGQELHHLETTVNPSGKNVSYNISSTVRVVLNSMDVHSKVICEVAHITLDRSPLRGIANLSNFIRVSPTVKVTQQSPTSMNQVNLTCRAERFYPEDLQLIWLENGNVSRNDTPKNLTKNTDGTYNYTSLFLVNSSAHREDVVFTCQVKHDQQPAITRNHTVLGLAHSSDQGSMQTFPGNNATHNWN
Method: as §2, §3

[6] = molecular target: T5, cynomolgus SIRPα extracellular domain + His-tag (NP_001271679) (cynomolgus monkey); test: SPR, Ab captured, ECD-His analyte
T5 construct: also called CySIRPα NP_001271679; cynoSIRPα
T5 chain: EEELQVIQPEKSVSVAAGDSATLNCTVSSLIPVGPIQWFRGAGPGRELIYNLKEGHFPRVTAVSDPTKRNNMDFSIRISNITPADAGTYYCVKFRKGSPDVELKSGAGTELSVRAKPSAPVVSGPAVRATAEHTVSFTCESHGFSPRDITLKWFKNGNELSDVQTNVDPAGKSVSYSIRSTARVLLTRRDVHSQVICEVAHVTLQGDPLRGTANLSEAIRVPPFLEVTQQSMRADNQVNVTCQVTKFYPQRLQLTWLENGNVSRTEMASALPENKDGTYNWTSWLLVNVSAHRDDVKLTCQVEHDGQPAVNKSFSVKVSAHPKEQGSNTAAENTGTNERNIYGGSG
Method: as §2, §3

[7] = molecular target: T6, full-length human SIRPβL (NP_001129316.1) on cells (human, UniProt Q5TFQ8 30-398); test: flow cytometry, U937 SIRPα KO cells
T6 construct: on U937 SIRPα KO cells and Expi-CHO cells; also called βL WT; SIRPβ1v3
Method: as §1, with “Antibody binding to cells expressing full-length human SIRPβ1 (NP_006056.2) and SIRPβL (NP_001129316.1) is evaluated by flow cytometry. SIRPβ1- or SIRPβL-expressing U937^{SIRPα KO}” for “These”, “secondary reagent. Cells” for “antibodies. Stained cells”

[8] = molecular target: T7, full-length human SIRPγ (NP_061026.2) on cells (human, UniProt Q9P1W8 29-387); test: flow cytometry, primary human CD3+ T cells
T7 construct: on CHO and Expi-CHO cells; endogenous on primary human CD3+ T cells; also called γ WT
Method: Antibody binding to primary human T cells expressing endogenous SIRPγ is evaluated by flow cytometry. Human peripheral blood mononuclear cells (PBMCs) are blocked with donkey IgG and incubated on ice with increasing concentrations of antibody for 60 minutes, washed and stained with AF647-conjugated donkey F(ab′)₂ anti-human IgG secondary reagent. […] Cells are washed, fixed, and analyzed by flow cytometry. Median fluorescent intensity of CD3+ gated population is determined and used as a measure of antibody binding.

Sequence of full-length human SIRPβ1 D→H on Expi-CHO cells (O00241 30-398 D130H): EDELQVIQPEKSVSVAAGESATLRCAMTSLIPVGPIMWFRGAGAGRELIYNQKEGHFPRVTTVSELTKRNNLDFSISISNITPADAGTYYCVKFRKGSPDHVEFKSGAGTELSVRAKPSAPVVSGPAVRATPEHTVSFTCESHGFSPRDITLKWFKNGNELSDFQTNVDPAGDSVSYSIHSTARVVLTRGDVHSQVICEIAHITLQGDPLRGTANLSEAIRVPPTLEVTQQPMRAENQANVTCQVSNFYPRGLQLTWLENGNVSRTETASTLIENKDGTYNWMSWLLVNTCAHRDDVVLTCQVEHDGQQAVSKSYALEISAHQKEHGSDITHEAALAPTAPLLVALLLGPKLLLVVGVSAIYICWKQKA
T1 sequence (P78324 other isoform, or with tags, fused parts or gaps): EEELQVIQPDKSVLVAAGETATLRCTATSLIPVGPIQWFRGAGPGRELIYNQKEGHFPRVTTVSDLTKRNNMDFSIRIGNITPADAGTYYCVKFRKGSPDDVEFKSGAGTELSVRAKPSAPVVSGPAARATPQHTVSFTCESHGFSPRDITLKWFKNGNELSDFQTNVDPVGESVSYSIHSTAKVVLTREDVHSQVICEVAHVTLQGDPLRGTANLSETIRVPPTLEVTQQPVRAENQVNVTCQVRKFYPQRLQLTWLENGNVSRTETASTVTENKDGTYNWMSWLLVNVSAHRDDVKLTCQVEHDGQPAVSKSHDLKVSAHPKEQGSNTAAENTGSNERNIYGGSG
T2 sequence (P78324 other isoform, or with tags, fused parts or gaps): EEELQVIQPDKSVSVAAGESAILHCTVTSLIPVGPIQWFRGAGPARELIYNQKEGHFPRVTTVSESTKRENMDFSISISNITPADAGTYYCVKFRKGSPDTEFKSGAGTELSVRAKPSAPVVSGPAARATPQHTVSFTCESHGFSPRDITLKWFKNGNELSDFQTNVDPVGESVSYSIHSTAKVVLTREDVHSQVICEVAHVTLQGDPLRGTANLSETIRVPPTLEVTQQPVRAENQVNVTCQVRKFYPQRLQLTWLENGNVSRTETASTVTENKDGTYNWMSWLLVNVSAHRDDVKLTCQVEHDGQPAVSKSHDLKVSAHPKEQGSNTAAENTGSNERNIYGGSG
T3 sequence (O00241 other isoform, or with tags, fused parts or gaps): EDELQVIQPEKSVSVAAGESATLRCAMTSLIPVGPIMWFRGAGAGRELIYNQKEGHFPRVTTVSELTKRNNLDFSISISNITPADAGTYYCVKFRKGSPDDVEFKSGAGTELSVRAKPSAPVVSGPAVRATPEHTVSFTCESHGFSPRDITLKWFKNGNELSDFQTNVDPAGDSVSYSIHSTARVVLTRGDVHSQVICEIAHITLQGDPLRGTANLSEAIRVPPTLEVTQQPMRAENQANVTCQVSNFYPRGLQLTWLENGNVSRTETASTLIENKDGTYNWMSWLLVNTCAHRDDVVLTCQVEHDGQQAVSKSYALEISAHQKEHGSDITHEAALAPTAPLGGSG
T7 sequence (Q9P1W8 29-387): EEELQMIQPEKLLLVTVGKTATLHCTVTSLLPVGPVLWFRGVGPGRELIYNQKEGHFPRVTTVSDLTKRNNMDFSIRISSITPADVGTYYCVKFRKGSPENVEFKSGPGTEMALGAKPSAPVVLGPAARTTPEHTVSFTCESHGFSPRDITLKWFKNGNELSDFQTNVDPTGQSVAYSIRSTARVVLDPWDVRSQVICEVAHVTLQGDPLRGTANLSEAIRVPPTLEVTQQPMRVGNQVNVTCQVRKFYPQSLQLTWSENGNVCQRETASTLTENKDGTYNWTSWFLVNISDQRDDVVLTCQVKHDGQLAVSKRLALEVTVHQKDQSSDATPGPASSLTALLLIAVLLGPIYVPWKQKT
T6 sequence (Q5TFQ8 30-398): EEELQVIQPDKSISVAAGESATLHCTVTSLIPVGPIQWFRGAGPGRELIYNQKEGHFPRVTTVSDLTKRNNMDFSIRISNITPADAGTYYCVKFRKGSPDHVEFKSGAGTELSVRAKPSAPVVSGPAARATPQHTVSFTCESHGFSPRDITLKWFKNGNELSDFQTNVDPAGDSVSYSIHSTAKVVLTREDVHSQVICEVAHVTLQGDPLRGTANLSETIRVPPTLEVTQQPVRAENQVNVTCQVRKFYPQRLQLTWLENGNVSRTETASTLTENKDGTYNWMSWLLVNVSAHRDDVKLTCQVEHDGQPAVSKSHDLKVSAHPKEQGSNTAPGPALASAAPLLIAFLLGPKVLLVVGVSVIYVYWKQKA

binding result [1]: no binding
Kd [2]: 0.627 nM
Kd [3]: 0.0969 nM
Kd [4]: 2.14 nM
binding result [5]: no binding
Kd [6]: 14.3 nM
B1: Antibody C (antibody, human IgG1, kappa, L234A L235A, V domains shown)
VH: EVQLVESGGGLVQPGGSLRLSCAASGFTFSSYDMHWVRQATGKGLEWVSVIGIAGDTYYPGSVKGRFTISRENAKNSLYLQMNSLRVGDTAVYYCARGGSWDDAFDIWGQGTMVTVSS
VL: DIQMTQSPSSLSASIGDKVTITCRASQDINNYLAWFQQKPGKAPKSLIYTASSLQSGVPSKFSGSGSGTDFTLTISSLQPEDFATYYCQQYVSYPYTFGQGTKLEIKR

binding result [1]: no binding
Kd [2]: 4.04 nM
Kd [3]: 4.05 nM
Kd [4]: 16.5 nM
binding result [5]: no binding
binding result [6]: no binding (tested: 1000 nM)
B2: Antibody D (antibody, human IgG1, kappa, L234A L235A, V domains shown)
VH: B1 VH with Y32F, A40P, V50T, Y59F, V87A, S100N, F105L
VL: B1 VL with I15V, K18R, V92N, S93T

binding result [7]: no binding
binding result [8]: no binding
B3: Antibody A11 (antibody, human IgG4 S228P, kappa)
heavy: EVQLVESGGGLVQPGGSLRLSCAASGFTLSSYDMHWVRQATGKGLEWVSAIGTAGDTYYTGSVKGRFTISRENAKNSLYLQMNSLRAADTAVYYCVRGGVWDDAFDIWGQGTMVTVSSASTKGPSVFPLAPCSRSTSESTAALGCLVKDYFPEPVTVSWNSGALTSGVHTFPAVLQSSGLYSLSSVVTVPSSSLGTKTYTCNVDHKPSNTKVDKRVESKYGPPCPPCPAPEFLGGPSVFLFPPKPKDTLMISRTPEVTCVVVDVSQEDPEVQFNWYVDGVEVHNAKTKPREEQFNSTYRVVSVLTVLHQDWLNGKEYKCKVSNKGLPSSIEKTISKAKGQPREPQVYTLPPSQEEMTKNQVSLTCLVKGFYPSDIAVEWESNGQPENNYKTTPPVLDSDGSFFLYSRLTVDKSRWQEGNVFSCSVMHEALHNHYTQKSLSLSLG
light: DIQMTQSPSSLSASVGDRVTITCRASQDINNYLAWFQQKPGKAPKSLIYTASSLHSGVPSKFSGSGSGTDFTLTISSLQPEDFATYYCQQYVSYPYTFGQGTKLEIKRTVAAPSVFIFPPSDEQLKSGTASVVCLLNNFYPREAKVQWKVDNALQSGNSQESVTEQDSKDSTYSLSSTLTLSKADYEKHKVYACEVTHQGLSSPVTKSFNRGEC
